The source of these data is the RNAGym collection of RNA variant scans (doi:10.1093/nar/gkz1192).

B1: CPEB3 Ribozyme (parent)
chain: UAACAGGGGGCCACAGCAGAAGCGUUCACGUCGCAGCCCCUGUCAGAUUCUGGUGAAUCUGCGAAUUCUGCUGUAUAUCUC

In the series the parent is B1. In words: self-cleavage, relative activity (ratio to wild type); higher = more cleavage; in vitro, sequencing. In short, it runs like this:
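Relative activity compares each variant's cleaved/total read fraction with that of the unmutated ribozyme. To get these fractions, barcoded CPEB3 ribozyme libraries from rounds of error-prone PCR were transcribed with T7 RNA polymerase for 5 hours at 37°C and then given 15 min of DNase I treatment before EDTA was added. The RNAs were reverse transcribed with template switching and sequenced on Illumina, and DNA sequencing linked barcodes to variants. A minimum of 5 reads applied, and three batches were averaged.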
For the variant UUACAGGGGGCCACAGCAGAAGCAUUCACGUCGCAGCCCCUGUCAGAUUCUGGUGAAUCUGCGAAUUCUGCUGUAUAUCUC, the self-cleavage was 0.3.
As for UAACAGGGGGCCACAGCAGAAGCGUUCACGUCGCAGCCCCUGUCAGAUUCUGGUGAUUCUGCGAGUUCUGCUGUAUAUCUC, the self-cleavage amounted to 0.22.
Regarding UAACAGGGGGCCACAGCAGAAGCGUACACGUCGCAGCCCCUGUCAGAUUCUGGUGUAUCUGCGAAUUCUGCUGUAUAUCUC, the self-cleavage was determined as 0.4.
To UAACAGGGGGCCACAGCAGAAGCGUUCACGUCGCAGCCCCUGUCGGAUUCUGGUGAAACUGCGAAUUCUGCUGUAUAUCUC belongs 0.31; to UCACAGGGGGCCACAGCAGAAGCGCUCACGUCGCAGCCCCUGUCAGAUUCUGGUGAAUCUGCGAAUUCUGCUGUAUAUCUC, 0.49; to UAACAGGGGGCCACGGCAGAAGCGUUCACGUCGCAGCCCCUGUCAGAUUCUGGUGAAUCUGCGAAUUCUGUUGUAUAUCUC, 0.28.
On to UAACAUGGGGCCACAGCAGACGCGUUCACGUCGCAGCCCCUGUCAGAUUCUGGUGAAUCUGCGAAUUCUGCUGUAUAUCUC, for which the self-cleavage came to 0.17.
UAACAGGGGGCCACAGCAGAAGCGUUCCCGUCGCAGCCCCUGACAGAUUCUGGUGAAUCUGCGAAUUCUGCUGUAUAUCUC: the self-cleavage came to 0.59.
UAACAGGGGGCCACAGCAGAAGCGUUCACGUCGCAGCCCUUGUCAGAUUCUGGUGAAUCUGCGAAUUCUGCUGUAUCUCUC: the self-cleavage stood at 0.74.
For the variant UUACAGGGGGCCACAGCAGAAGCGUUCACGUCGCAGCCCCUGUAAGAUUCUGGUGAAUCUGCGAAUUCUGCUGUAUAUCUC, the self-cleavage was 0.24.
Take UAGCAGGGGGCCACAGCAGAAGCGUUCACGUCGCAGCCCCUGUCAGAUUCUGGUGAAUCUGCGAAUUCUGGUGUAUAUCUC: the self-cleavage stood at 0.57.
Turning to UAACAGGGGGCCACAGCAGAAGCGCUCACGUCGCAGCCCCUGGCAGAUUCUGGUGAAUCUGCGAAUUCUGCUGUAUAUCUC, the self-cleavage worked out at 0.35.
As to UAACAGGGGGCCACAGCAGAAGCGUUCACGUCGCAGCCCCUGUCAGAUUCUGGAGAAUCUGCGAAUUCUGCUGUAUAUGUC, the self-cleavage was 1.23.
To UAACAGGGGGCCACAGCAGAAGCGUUCACCUCGCAGCCCCUGUCAGAUUCUGGUGAAUCUGCGAAUUCUGCUGUAAAUCUC belongs 0.17; to UAACAGGUGGCCACAGCAGAAGCGUUCACGUCGCAGCCCCUGUCAGGUUCUGGUGAAUCUGCGAAUUCUGCUGUAUAUCUC, 0.13; to UAACAGGAGGCCACAGCAGAAGCGUUCACGUCGCAGCCCCUGACAGAUUCUGGUGAAUCUGCGAAUUCUGCUGUAUAUCUC, 0.27.
Regarding UAACAGGUGGCUACAGCAGAAGCGUUCACGUCGCAGCCCCUGUCAGAUUCUGGUGAAUCUGCGAAUUCUGCUGUAUAUCUC, the self-cleavage was determined as 0.3.
Turning to UAACAGGGGGCCACAGCCGAAGCGUUCACGUCGCAGCCCCUGUCAGAUUCUGGUGAAUCUGCGAAUUCUGCUGUAUAUCCC, the self-cleavage is 0.54.
For UAACAGGGGGCCACAGCAGAAGUAUUCACGUCGCAGCCCCUGUCAGAUUCUGGUGAAUCUGCGAAUUCUGCUGUAUAUCUC, the self-cleavage turned out to be 0.22.
Regarding UAUCAGGGGGCCACAGCAGAAGCGUUCUCGUCGCAGCCCCUGUCAGAUUCUGGUGAAUCUGCGAAUUCUGCUGUAUAUCUC, the self-cleavage came out at 1.13.
To UAACAGGGGGCCACAGCAGAAGCGUUCACGUUGCAGCCCCUGUCAGAUUCCGGUGAAUCUGCGAAUUCUGCUGUAUAUCUC belongs 0.16; to UAACAGGGGGCCACAGCAGAAGCGUUCACGCCGCAGCCCCUGUCAGAUUCUGAUGAAUCUGCGAAUUCUGCUGUAUAUCUC, 0.91; to UACCAGGGGGCCACAGCAGAAGCGUUCACGUCGCAGCCCCUGUCAGAUUCUGGUGAAUCUGCGAAUUCUGCUGAAUAUCUC, 1.14.
For the variant UAGCAGGGGGCCACAGCUGAAGCGUUCACGUCGCAGCCCCUGUCAGAUUCUGGUGAAUCUGCGAAUUCUGCUGUAUAUCUC, the self-cleavage is 0.44.
On to UAACAGGGGGCCACAGCAGAAGCGUUCACGUCGCAGCCCCUGUCAGAUUCUGGUGAAUCUGCAAAUUCAGCUGUAUAUCUC, for which the self-cleavage amounted to 0.5.
To UAACAGGGGGCCACAGCAGAAGCGUCCACUUCGCAGCCCCUGUCAGAUUCUGGUGAAUCUGCGAAUUCUGCUGUAUAUCUC belongs 0.16; to UAACAGGGGGCCACAGCAGAAGCGUUCUCGUCGCAGCCCCUGUCAGACUCUGGUGAAUCUGCGAAUUCUGCUGUAUAUCUC, 0.42; to UAACAGGGGGCCACAGCAGAAGCGUUCACGUCGCAGCCCCCGUCAGAUUCUGGUGAAUCUGCGAAUUCUGCUGUAUAUCAC, 1.15.
For the variant UAACAGGGGGCCACAGCAGAAGCGUUCACGUCGCAGCCCCUGUCAGAUUCUGAUGAAUCUGCGAAUUCUGCUGUACAUCUC, the self-cleavage was determined as 1.01.
Regarding UAACAGGGGGCCACAGCAGAAGCGUUCGCGUCGCAGCCCCUGUCAGAUUCUGGUGAAUCUGCGAAUUCUGCUGUAUAUCUC, the self-cleavage stood at 0.67.
As for UAACUGGGGGCCACAGCAGAAGCGUUCACGUGGCAGCCCCUGUCAGAUUCUGGUGAAUCUGCGAAUUCUGCUGUAUAUCUC, the self-cleavage stood at 0.16.
To UAGCAGGGGGCCACAGCAGAAGGGUUCACGUCGCAGCCCCUGUCAGAUUCUGGUGAAUCUGCGAAUUCUGCUGUAUAUCUC belongs 0.33; to UAACAGGGGGCCACAGCAGAAGCGUUCACGUCGCAGCCCCUGACAGAUUCUGGUGAAUCUGCGAAUUCUGCUGUCUAUCUC, 1.36; to UAACAGGGGGCCACAGCAGAAGCGUCCACGUCGCAGCCCCUGUCAGAUUCUGGUGAAUCUGCGAAUUCGGCUGUAUAUCUC, 0.17.
